Assay results from publication PMC6451127.
Where a chain is given by its changes, count along the chain named. Names may count otherwise.

B1: AtMAPDA (Arabidopsis thaliana) (protein)
chain: MEWIQSLPKIELHAHLNGSIRDSTLLELARVLGEKGVIVFADVEHVIQKNDRSLVEVFKLFDLIHKLTTDHKTVTRITREVVEDFALENVVYLELRTTPKRSDSIGMSKRSYMEAVIQGLRSVSEVDIDFVTASDSQKLHNAGDGIGRKKIYVRLLLSIDRRETTESAMETVKLALEMRDVGVVGIDLSGNPLVGEWSTFLPALQYAKDNDLHITLHCGEVPNPKEIQAMLDFKPHRIGHACFFKDEDWTKLKSFRIPVEICLTSNIVTKSISSIDIHHFADLYNAKHPLILCTDDFGVFSTSLSNEYALAVRSLGLSKSETFALARAAIDATFAEDEVKQQLRFIFDSASPEHV
B2: AtMAPDA (Arabidopsis thaliana; K100A) (protein)
chain: B1 chain with K100A
B3: AtMAPDA (Arabidopsis thaliana; T98A) (protein)
chain: B1 chain with T98A
B4: AtMAPDA (Arabidopsis thaliana; H65A) (protein)
chain: B1 chain with H65A
B5: AtMAPDA (Arabidopsis thaliana; T97A) (protein)
chain: B1 chain with T97A
B6: AtMAPDA (Arabidopsis thaliana; N17A) (protein)
chain: B1 chain with N17A

Substrate: CNc1ncnc2c1ncn2[C@@H]1O[C@H](COP(=O)(O)O)[C@@H](O)[C@H]1O
Assay: purified protein
Format: biochemical, Arabidopsis thaliana
Details: 20 mM potassium phosphate pH 7.2, 25 °C

Row | Protein | Km (250 nM enzyme) [µM] | Km [µM]
1 | B1 | 4.14 | 
2 | B2 |  | 6.89
3 | B3 |  | 4.52
4 | B4 |  | 5.51
5 | B5 |  | 8.94
6 | B6 |  | 7.12
